This passage reports kcat results from US7601489B2, “Manganese ion regulation of reverse transcriptase activity and methods of modulating same” (The Johns Hopkins University, priority 2002, dated 2009).

Substrate in this data set: [Mg+2]
As to the kind of experiment: purified protein, by the assay type. The settings on record: fit to Hill equation.

B1: wild-type Ty1 RT (Saccharomyces cerevisiae S288C) (protein)
chain: MESQQLSQHSHISHGSACASVTSKEVHTNQDPLDVSASKTEECEKASTKANSQQTTTPASSAVPENPHHASPQPASVPPPQNGPYPQQCMMTQNQANPSGWSFYGHPSMIPYTPYQMSPMYFPPGPQSQFPQYPSSVGTPLSTPSPESGNTFTDSSSADSDMTSTKKYVRPPPMLTSPNDFPNWVKTYIKFLQNSNLGGIIPTVNGKPVRQITDDELTFLYNTFQIFAPSQFLPTWVKDILSVDYTDIMKILSKSIEKMQSDTQEANDIVTLANLQYNGSTPADAFETKVTNIIDRLNNNGIHINNKVACQLIMRGLSGEYKFLRYTRHRHLNMTVAELFLDIHAIYEEQQGSRNSKPNYRRNLSDEKNDSRSYTNTTKPKVIARNPQKTNNSKSKTARAHNVSTSNNSPSTDNDSISKSTTEPIQLNNKHDLHLGQELTESTVNHTNHSDDELPGHLLLDSGASRTLIRSAHHIHSASSNPDINVVDAQKRNIPINAIGDLQFHFQDNTKTSIKVLHTPNIAYDLLSLNELAAVDITACFTKNVLERSDGTVLAPIVQYGDFYWVSKRYLLPSNISVPTINNVHTSESTRKYPYPFIHRMLAHANAQTIRYSLKNNTITYFNESDVDWSSAIDYQCPDCLIGKSTKHRHIKGSRLKYQNSYEPFQYLHTDIFGPVHNLPKSAPSYFISFTDETTKFRWVYPLHDRREDSILDVFTTILAFIKNQFQASVLVIQMDRGSEYTNRTLHKFLEKNGITPCYTTTADSRAHGVAERLNRTLLDDCRTQLQCSGLPNHLWFSAIEFSTIVRNSLASPKSKKSARQHAGLAGLDISTLLPFGQPVIVNDHNPNSKIHPRGIPGYALHPSRNSYGYIIYLPSLKKTVDTTNYVILQGKESRLDQFNYDALTFDEDLNRLTASYQSFIASNEIQESNDLNIESDHDFQSDIELHPEQPRNVLSKAVSPTDSTPPSTHTEDSKRVSKTNIRAPREVDPNISESNILPSKKRSSTPQISNIESTGSGGMHKLNVPLLAPMSQSNTHESSHASKSKDFRHSDSYSENETNHTNVPISSTGGTNNKTVPQISDQETEKRIIHRSPSIDASPPENNSSHNIVPIKTPTTVSEQNTEESIIADLPLPDLPPESPTEFPDPFKELPPINSHQTNSSLGGIGDSNAYTTINSKKRSLEDNETEIKVSRDTWNTKNMRSLEPPRSKKRIHLIAAVKAVKSIKPIRTTLRYDEAITYNKDIKEKEKYIEAYHKEVNQLLKMKTWDTDEYYDRKEIDPKRVINSMFIFNKKRDGTHKARFVARGDIQHPDTYDTGMQSNTVHHYALMTSLSLALDNNYYITQLDISSAYLYADIKEELYIRPPPHLGMNDKLIRLKKSHYGLKQSGANWYETIKSYLIKQCGMEEVRGWSCVFKNSQVTICLFVDDMILFSKDLNANKKIITTLKKQYDTKIINLGESDNEIQYDILGLEIKYQRGKYMKLGMENSLTEKIPKLNVPLNPKGRKLSAPGQPGLYIDQDELEIDEDEYKEKVHEMQKLIGLASYVGYKFRFDLLYYINTLAQHILFPSRQVLDMTYELIQFMWDTRDKQLIWHKNKPTEPDNKLVAISDASYGNQPYYKSQIGNIFLLNGKVIGGKSTKASLTCTSTTEAEIHAISESVPLLNNLSYLIQELNKKPIIKGLLTDSRSTISIIKSTNEEKFRNRFFGTKAMRLRDEVSGNNLYVYYIETKKNIADVMTKPLPIKTFKLLTNKWIH
For B1, where the note is “other: Wt. Ty1 RT”, the kcat (usually the maximal rate divided by the concentration of active sites) is 0.000447 ± 8.89e-05 s⁻¹.

B2: D211N Ty1 RT (Saccharomyces cerevisiae S288C; D1428N) (protein)
chain: AVKAVKSIKPIRTTLRYDEAITYNKDIKEKEKYIEAYHKEVNQLLKMKTWDTDEYYDRKEIDPKRVINSMFIFNKKRDGTHKARFVARGDIQHPDTYDTGMQSNTVHHYALMTSLSLALDNNYYITQLDISSAYLYADIKEELYIRPPPHLGMNDKLIRLKKSHYGLKQSGANWYETIKSYLIKQCGMEEVRGWSCVFKNSQVTICLFVDNMILFSKDLNANKKIITTLKKQYDTKIINLGESDNEIQYDILGLEIKYQRGKYMKLGMENSLTEKIPKLNVPLNPKGRKLSAPGQPGLYIDQDELEIDEDEYKEKVHEMQKLIGLASYVGYKFRFDLLYYINTLAQHILFPSRQVLDMTYELIQFMWDTRDKQLIWHKNKPTEPDNKLVAISDASYGNQPYYKSQIGNIFLLNGKVIGGKSTKASLTCTSTTEAEIHAISESVPLLNNLSYLIQELNKKPIIKGLLTDSRSTISIIKSTNEEKFRNRFFGTKAMRLRDEVSGNNLYVYYIETKKNIADVMTKPLPIKTFKLLTNKWIH
On to B2, for which the kcat (other: D211N Ty1 RT) worked out at 0.000444 ± 7.78e-05 s⁻¹.
